The results in this text go back to publication PMC4072508, “Genome-Wide Prediction and Validation of Peptides That Bind Human Prosurvival Bcl-2 Proteins” (PLoS Computational Biology, 2014).

Holding throughout (assay): peptide SPOT array, c-Myc-tagged receptor at 1 uM or 100 nM, anti-c-Myc-Cy3
One experiment deals with Bcl-xL, Q07817.
For the next experiment, the target named is T1, Bfl-1, Q16548.
T1 chain: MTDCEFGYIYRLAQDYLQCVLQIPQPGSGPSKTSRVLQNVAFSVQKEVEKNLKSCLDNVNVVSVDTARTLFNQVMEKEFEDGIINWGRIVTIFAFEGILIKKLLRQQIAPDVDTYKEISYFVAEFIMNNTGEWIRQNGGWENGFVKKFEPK

Another experiment deals with T2, Mcl-1, Q07820.
T2 chain: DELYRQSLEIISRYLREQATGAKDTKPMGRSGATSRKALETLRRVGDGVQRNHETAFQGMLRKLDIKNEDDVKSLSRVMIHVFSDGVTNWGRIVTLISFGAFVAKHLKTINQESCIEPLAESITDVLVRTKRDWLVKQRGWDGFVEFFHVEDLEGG

Sequence of Bcl-xL, Q07817 (Q07817 1-209): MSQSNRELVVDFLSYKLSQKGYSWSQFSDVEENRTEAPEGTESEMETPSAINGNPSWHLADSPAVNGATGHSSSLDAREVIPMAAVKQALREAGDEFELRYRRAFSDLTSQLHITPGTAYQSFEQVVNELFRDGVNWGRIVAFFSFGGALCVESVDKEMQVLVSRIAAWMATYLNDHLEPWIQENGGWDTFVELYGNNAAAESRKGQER

For the molecule VLAPVQLGKWDVLFCDEINLPDMDKY [DYNC1H1], the SPOT signal as a fraction of Bim BH3's signal on the same receptor and array with Bcl-xL, Q07817 worked out at 0.07; in the experiment with Bfl-1, Q16548, 0.07; in the experiment with Mcl-1, Q07820, 0.05.

For FSKREKLVEIDRNIGDERTMVFVETK [DDX4], the SPOT signal as a fraction of Bim BH3's signal on the same receptor and array is 0.06 in the experiment with Bcl-xL, Q07817; 0.06 with Bfl-1, Q16548; 0.07 in the experiment with Mcl-1, Q07820.

Turning to MQTLSELAKSFQDMLDRCLLVLHLEV, the SPOT signal as a fraction of Bim BH3's signal on the same receptor and array turned out to be 0.05 with Bcl-xL, Q07817; 0.04 with Bfl-1, Q16548; 0.04 in the experiment with Mcl-1, Q07820.

For HTALENCASLLCIRLDELQEALTSHC, the SPOT signal as a fraction of Bim BH3's signal on the same receptor and array with Bcl-xL, Q07817 is 0.05; with Bfl-1, Q16548, 0.03; with Mcl-1, Q07820 it was 0.03.

With ACGDSVLARMDRELGDSLRRPQLRLW [SLC19A1], the SPOT signal as a fraction of Bim BH3's signal on the same receptor and array is 0.27 with Bcl-xL, Q07817; 0.13 in the experiment with Bfl-1, Q16548; 0.15 with Mcl-1, Q07820.

Consider VLLTLLVAAVLRCQLQDVQEAGSCVQ [COL2A1], for which the SPOT signal as a fraction of Bim BH3's signal on the same receptor and array with Bcl-xL, Q07817 was 0.05; with Bfl-1, Q16548 it was 0.04; with Mcl-1, Q07820, 0.06.

Take SEIMHSFAKCIEVMGDGCLNNEHFEE [IPO5]: the SPOT signal as a fraction of Bim BH3's signal on the same receptor and array turned out to be 0.09 with Bcl-xL, Q07817; 0.03 in the experiment with Bfl-1, Q16548; 0.04 with Mcl-1, Q07820.

As for MQTLSELAKSFQDMADRCLLVLHLEV, the SPOT signal as a fraction of Bim BH3's signal on the same receptor and array was 0.05 in the experiment with Bcl-xL, Q07817; 0.04 in the experiment with Bfl-1, Q16548; 0.04 in the experiment with Mcl-1, Q07820.

Turning to GSPDSMFGISLAVLGDLNQDGFPDIA [ITGA7], the SPOT signal as a fraction of Bim BH3's signal on the same receptor and array was determined as 0.07 in the experiment with Bcl-xL, Q07817; 0.08 in the experiment with Bfl-1, Q16548; 0.04 with Mcl-1, Q07820.

Turning to ELDEDDLEAELDALGDELLADEDSSY [CHMP5], the SPOT signal as a fraction of Bim BH3's signal on the same receptor and array came to 0.06 with Bcl-xL, Q07817; 0.03 with Bfl-1, Q16548; 0.03 in the experiment with Mcl-1, Q07820.

LMARPAVALHDQSIADGFKEAVRYVL [SOS2]: the SPOT signal as a fraction of Bim BH3's signal on the same receptor and array in the experiment with Bcl-xL, Q07817 was determined as 0.17; in the experiment with Bfl-1, Q16548 it was 0.22; in the experiment with Mcl-1, Q07820 it was 0.45.

Consider IQENVDISTVYQIFADEVLGSGQFGI [PRKD3], for which the SPOT signal as a fraction of Bim BH3's signal on the same receptor and array in the experiment with Bcl-xL, Q07817 stood at 0.08; with Bfl-1, Q16548, 0.05; with Mcl-1, Q07820, 0.04.

On to TETKATFGVHLKIVLDWTERFRDLLL [NOX4], for which the SPOT signal as a fraction of Bim BH3's signal on the same receptor and array in the experiment with Bcl-xL, Q07817 came out at 0.07; with Bfl-1, Q16548 it was 0.08; with Mcl-1, Q07820, 0.08.

In the case of AFGLGDLPNLDGLVGDQLGDTERKRR [ADAMTS14], the SPOT signal as a fraction of Bim BH3's signal on the same receptor and array with Bcl-xL, Q07817 is 0.05; with Bfl-1, Q16548, 0.04; in the experiment with Mcl-1, Q07820 it was 0.04.

APGEEDLCAADNVICDNVGKDWRRLA [FADD]: the SPOT signal as a fraction of Bim BH3's signal on the same receptor and array in the experiment with Bcl-xL, Q07817 came out at 0.06; with Bfl-1, Q16548, 0.04; in the experiment with Mcl-1, Q07820, 0.03.

With ERLKGQLCDVLLIVGDQKFRAHKNVL [ZNF295], the SPOT signal as a fraction of Bim BH3's signal on the same receptor and array was 0.38 with Bcl-xL, Q07817; 0.21 with Bfl-1, Q16548; 0.25 with Mcl-1, Q07820.

For the molecule DDMFEPHSWNLKELSDDCFQQWGVRP [PRCP], the SPOT signal as a fraction of Bim BH3's signal on the same receptor and array is 0.06 in the experiment with Bcl-xL, Q07817; 0.05 with Bfl-1, Q16548; 0.04 with Mcl-1, Q07820.

As to VDSIRPKCQELRHLLDQFSAEIARRR [MCF2L], the SPOT signal as a fraction of Bim BH3's signal on the same receptor and array was 0.6 with Bcl-xL, Q07817; 0.27 with Bfl-1, Q16548; 0.25 in the experiment with Mcl-1, Q07820.

HTALENCASLLCIRADELQEALTSHC: the SPOT signal as a fraction of Bim BH3's signal on the same receptor and array with Bcl-xL, Q07817 worked out at 0.07; with Bfl-1, Q16548, 0.03; with Mcl-1, Q07820 it was 0.03.

As for TAGLRPGARLDRVCGQTLPSLRPEAA [SIPA1], the SPOT signal as a fraction of Bim BH3's signal on the same receptor and array amounted to 0.72 with Bcl-xL, Q07817; 0.45 with Bfl-1, Q16548; 0.63 in the experiment with Mcl-1, Q07820.

As for KGTAVAICRRDGIFGDTEDVAGKAYT [ATP2A3], the SPOT signal as a fraction of Bim BH3's signal on the same receptor and array with Bcl-xL, Q07817 was 0.08; with Bfl-1, Q16548 it was 0.06; with Mcl-1, Q07820, 0.08.

With CGEWTRRSLHLRVLLRQLILPTDKGV [FAM149A], the SPOT signal as a fraction of Bim BH3's signal on the same receptor and array with Bcl-xL, Q07817 turned out to be 0.53; with Bfl-1, Q16548, 0.51; in the experiment with Mcl-1, Q07820, 0.53.

For the molecule PSECETLGSNDGHNADLLNENNILAK [ZFP90], the SPOT signal as a fraction of Bim BH3's signal on the same receptor and array with Bcl-xL, Q07817 was found to be 0.11; with Bfl-1, Q16548, 0.04; with Mcl-1, Q07820 it was 0.04.

For the molecule LALMMQLARELKTLLRDLGMAVVVTN [RAD51L3], the SPOT signal as a fraction of Bim BH3's signal on the same receptor and array with Bcl-xL, Q07817 turned out to be 0.11; with Bfl-1, Q16548 it was 0.07; with Mcl-1, Q07820 it was 0.1.

Consider TSRINEVQVNLSLLGDDLLLPAQSTL [SPHKAP], for which the SPOT signal as a fraction of Bim BH3's signal on the same receptor and array came to 0.06 with Bcl-xL, Q07817; 0.03 with Bfl-1, Q16548; 0.04 with Mcl-1, Q07820.

Take QEQEQHVPFDDHTYGDQLVSRFPQLN [NCAPH2]: the SPOT signal as a fraction of Bim BH3's signal on the same receptor and array with Bcl-xL, Q07817 was 0.05; with Bfl-1, Q16548, 0.04; with Mcl-1, Q07820 it was 0.04.

EAVTDGLKRALRSFGNALGNCILDKD [RAD52]: the SPOT signal as a fraction of Bim BH3's signal on the same receptor and array in the experiment with Bcl-xL, Q07817 amounted to 0.15; with Bfl-1, Q16548, 0.06; with Mcl-1, Q07820 it was 0.1.

Take ELLYGIWSNCLGLILDSFHMFFDSTA [SLC30A7]: the SPOT signal as a fraction of Bim BH3's signal on the same receptor and array with Bcl-xL, Q07817 amounted to 0.07; in the experiment with Bfl-1, Q16548, 0.06; in the experiment with Mcl-1, Q07820, 0.06.
